According to publication PMC11079029, “Intramolecular autoinhibition regulates the selectivity of PRPF40A tandem WW domains for proline-rich motifs” (Nature Communications, 2024):

Columns and labels:
Details in all cases: both partners purified
[1] = target: T1, GB1-SF1 Pro C (residues 539-594) (UniProt Q15637 539-594); test: ITC; GB1-peptide or GB1-SF1 construct in the cell, PRPF40A WW12 in the syringe (as shown in Supplementary Figures 7 and 16A); 25 °C, 20 mM sodium phosphate pH 6.5, 100 mM NaCl; one-site binding model; at least duplicates; affinities apparent
T1 construct: splicing factor 1 (SF1), residues 539-594 of the proline-rich C-terminal region (holds the WWbs motif 575-590); His6-GB1-TEV site cassette of the pET24 vector, not cleaved; source: E. coli BL21(DE3), purified (Ni-NTA, SEC); not shown: GB1, N-terminal, kept
T1 sequence (looked up): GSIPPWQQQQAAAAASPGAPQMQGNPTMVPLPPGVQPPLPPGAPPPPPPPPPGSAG

[2] = target: T2, GB1-SF1 Pro ABCD (residues 410-639) (UniProt Q15637 410-639); test: ITC; PRPF40A construct (WW12, N-ext-WW12 or its mutant) in the cell, GB1-SF1 or GB1-SF3A1 construct in the syringe (as shown in Supplementary Figures 16 and 21); 25 °C, 20 mM sodium phosphate pH 6.5, 100 mM NaCl; one-site binding model; at least duplicates; affinities apparent
T2 construct: splicing factor 1 (SF1), residues 410-639, the complete proline-rich C-terminal region; His6-GB1-TEV site cassette of the pET24 vector, not cleaved; source: E. coli BL21(DE3), purified (Ni-NTA, SEC); not shown: GB1, N-terminal, kept
T2 sequence (looked up): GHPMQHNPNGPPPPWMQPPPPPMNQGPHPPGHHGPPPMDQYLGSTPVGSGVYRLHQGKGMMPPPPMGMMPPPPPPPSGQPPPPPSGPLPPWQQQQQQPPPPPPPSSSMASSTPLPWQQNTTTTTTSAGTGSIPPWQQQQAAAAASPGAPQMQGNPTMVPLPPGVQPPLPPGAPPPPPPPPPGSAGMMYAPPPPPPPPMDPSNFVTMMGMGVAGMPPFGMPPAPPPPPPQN

[3] = target: T3, GB1-SF1 Pro BCD (residues 468-639) (UniProt Q15637 468-639); test: as above
T3 construct: splicing factor 1 (SF1), residues 468-639; His6-GB1-TEV site cassette of the pET24 vector, not cleaved; source: E. coli BL21(DE3), purified (Ni-NTA, SEC); not shown: GB1, N-terminal, kept
T3 sequence (looked up): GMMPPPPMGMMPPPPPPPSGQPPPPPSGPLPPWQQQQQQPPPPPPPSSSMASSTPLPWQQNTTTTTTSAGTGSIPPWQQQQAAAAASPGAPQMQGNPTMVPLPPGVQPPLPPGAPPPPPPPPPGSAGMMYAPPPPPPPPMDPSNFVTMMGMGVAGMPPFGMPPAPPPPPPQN

[4] = target: T4, GB1-SF1 Pro CD (residues 539-639) (UniProt Q15637 539-639); test: as above
T4 construct: splicing factor 1 (SF1), residues 539-639; His6-GB1-TEV site cassette of the pET24 vector, not cleaved; source: E. coli BL21(DE3), purified (Ni-NTA, SEC); not shown: GB1, N-terminal, kept
T4 sequence (looked up): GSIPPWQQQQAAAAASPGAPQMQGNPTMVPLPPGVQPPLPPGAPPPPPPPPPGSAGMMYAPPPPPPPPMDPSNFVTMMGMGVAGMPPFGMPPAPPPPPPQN

[5] = target: T5, GB1-SF1 Pro BC (residues 468-594) (UniProt Q15637 468-594); test: as above
T5 construct: splicing factor 1 (SF1), residues 468-594; His6-GB1-TEV site cassette of the pET24 vector, not cleaved; also called SF1 BC; source: E. coli BL21(DE3), purified (Ni-NTA, SEC); not shown: GB1, N-terminal, kept
T5 sequence (looked up): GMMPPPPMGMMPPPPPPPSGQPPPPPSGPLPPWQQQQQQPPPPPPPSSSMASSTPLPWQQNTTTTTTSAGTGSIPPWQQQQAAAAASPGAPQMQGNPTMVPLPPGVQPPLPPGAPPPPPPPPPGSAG

[6] = target: T6, GB1-SF3A1 C-ter Pro (residues 552-683) (UniProt Q15459 552-683); test: as above
T6 construct: His6-GB1-TEV site cassette of the pET24 vector, not cleaved; source: E. coli BL21(DE3), purified (Ni-NTA, SEC); not shown: GB1, N-terminal, kept
T6 sequence (looked up): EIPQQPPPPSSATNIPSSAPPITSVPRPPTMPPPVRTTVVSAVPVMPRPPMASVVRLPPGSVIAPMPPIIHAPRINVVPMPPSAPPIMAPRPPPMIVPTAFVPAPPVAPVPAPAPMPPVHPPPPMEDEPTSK

B1: PRPF40A WW12 (tandem WW domains, residues 141-236) (domain or fragment, human, UniProt O75400 141-236, looked up)
chain: GAKSMWTEHKSPDGRTYYYNTETKQSTWEKPDDLKTPAEQLLSKCPWKEYKSDSGKPYYYNSQTKESRWAKPKELEDLEGYQNTIVAGSLITKSNL
notes: A few vector residues probably remain at the N-terminus after TEV cleavage (pETM11, NcoI site); 15N-labelled in the NMR experiments; also called PRPF40A WW tandem; WW12 wt; source: E. coli BL21(DE3), purified (Ni-NTA, TEV digestion, reverse Ni-NTA, SEC); not shown: His6, N-terminal, cleaved
[1]
  stoichiometry N: 0.88 ± 0.01 sites
[2]
  Kd: 4.91 ± 0.51 µM
[3]
  Kd: 3.65 ± 0.71 µM
[4]
  Kd: 3.8 ± 0.69 µM
[5]
  Kd: 6.83 ± 2.33 µM
[6]
  Kd: 19.3 ± 4.5 µM
